This experiment concerns FLT3/ITD MV4-11 xenografts. The experiment is described as follows: Survival of FLT3/ITD MV4-11 xenografts. It counts as in vivo. Conditions: MV4-11 s.c. in SCID mice, quizartinib 0.4 mg/kg daily for 21 days by mouth. As for the experimental part: Five million MV4-11 cells were implanted subcutaneously in SCID mice. Tumor growth was monitored throughout the course of the study with bilateral vernier caliper measurements, and mean tumor volumes were calculated using the equation (0.5×[length×width^2]).
Mice with advanced tumor burden were sacrificed upon reaching tumor volumes of greater than 400 mm^3 or showing symptoms of hind limb paralysis, cranial swelling, and/or moribundity.

B1: SGN-CD33A: h2H12EC antibody conjugated to SGD-1910, the pyrrolobenzodiazepine dimer drug-linker (conjugate, chains of the INN, looked up)
VH: QVQLVQSGAEVKKPGASVKVSCKASGYTFTNYDINWVRQAPGQGLEWIGWIYPGDGSTKYNEKFKAKATLTADTSTSTAYMELRSLRSDDTAVYYCASGYEDAMDYWGQGTTVTVSS
VL: DIQMTQSPSSLSASVGDRVTINCKASQDINSYLSWFQQKPGKAPKTLIYRANRLVDGVPSRFSGSGSGQDYTLTISSLQPEDFATYYCLQYDEFPLTFGGGTKVEIK
modifications: PBD dimer payload (talirine)
Consider B1, for which, for the setting “ADC 10 mcg/kg once i.p., FIG. 5”, the “effect on progression / survival” value is on record as “induced delay of progression”. Also, the median survival time (SGN-CD33A or SGN-CD123A 10 mcg/kg once i.p., untreated 23 days) came out at 31 days.
